Assay in all cases: cell-based or functional assay
One experiment addresses T1, Caspase-10 (UniProt Q92851).
T1 sequence (looked up): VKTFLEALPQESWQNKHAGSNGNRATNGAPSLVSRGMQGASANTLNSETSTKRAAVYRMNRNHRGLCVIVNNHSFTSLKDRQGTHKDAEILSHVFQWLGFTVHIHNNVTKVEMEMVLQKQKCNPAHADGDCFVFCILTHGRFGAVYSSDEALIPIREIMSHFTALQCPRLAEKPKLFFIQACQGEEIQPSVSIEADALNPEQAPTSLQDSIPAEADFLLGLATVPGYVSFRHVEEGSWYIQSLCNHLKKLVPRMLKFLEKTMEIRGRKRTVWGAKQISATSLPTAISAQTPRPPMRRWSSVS

Another experiment has as its target T2, Caspase-2 (UniProt P42575).
T2 sequence (looked up): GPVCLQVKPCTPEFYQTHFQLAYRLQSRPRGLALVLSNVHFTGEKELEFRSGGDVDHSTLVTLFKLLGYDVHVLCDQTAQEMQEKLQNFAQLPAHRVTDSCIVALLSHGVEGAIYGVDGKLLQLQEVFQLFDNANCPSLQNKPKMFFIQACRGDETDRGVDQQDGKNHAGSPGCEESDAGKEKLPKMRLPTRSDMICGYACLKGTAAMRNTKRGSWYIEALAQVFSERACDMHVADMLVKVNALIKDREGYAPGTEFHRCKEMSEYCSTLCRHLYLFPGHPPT

Another experiment has as its target T3, Caspase-3 (UniProt P42574).
T3 sequence (looked up): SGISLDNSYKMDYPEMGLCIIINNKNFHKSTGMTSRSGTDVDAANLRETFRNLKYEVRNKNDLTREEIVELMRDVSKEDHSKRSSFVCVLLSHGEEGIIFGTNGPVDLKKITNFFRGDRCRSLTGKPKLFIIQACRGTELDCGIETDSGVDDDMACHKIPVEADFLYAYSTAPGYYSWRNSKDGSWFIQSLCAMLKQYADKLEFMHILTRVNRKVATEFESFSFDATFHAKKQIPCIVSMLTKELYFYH

A further experiment addresses T4, Caspase-7 (UniProt P55210).
T4 sequence (looked up): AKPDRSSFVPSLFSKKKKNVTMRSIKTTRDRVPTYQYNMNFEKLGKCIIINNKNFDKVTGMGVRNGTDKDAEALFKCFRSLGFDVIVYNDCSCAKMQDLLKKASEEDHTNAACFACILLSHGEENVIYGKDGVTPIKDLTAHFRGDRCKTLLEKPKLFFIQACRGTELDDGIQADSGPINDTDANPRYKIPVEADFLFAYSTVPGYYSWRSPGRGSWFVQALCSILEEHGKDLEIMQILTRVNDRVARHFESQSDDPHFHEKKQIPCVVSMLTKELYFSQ

For the next experiment, the target named is Caspase-8 (UniProt Q14790).
Another experiment deals with Caspase-9 (UniProt P55211).
The next experiment addresses T5, Caspase-6 (UniProt P55212).
T5 sequence (looked up): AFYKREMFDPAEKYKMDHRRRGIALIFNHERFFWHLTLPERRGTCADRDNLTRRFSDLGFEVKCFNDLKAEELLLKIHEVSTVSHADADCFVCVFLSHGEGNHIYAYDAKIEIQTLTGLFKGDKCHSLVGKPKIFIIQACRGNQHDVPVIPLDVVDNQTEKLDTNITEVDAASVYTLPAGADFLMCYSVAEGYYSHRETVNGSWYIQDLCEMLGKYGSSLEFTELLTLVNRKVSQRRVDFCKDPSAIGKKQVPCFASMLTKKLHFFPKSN

For a further experiment, the target named is T6, Caspase-10, Q92851.
T6 chain: T1 sequence (looked up)

In the next experiment the target is T7, Caspase-3, P42574.
T7 chain: T3 sequence (looked up)

A further experiment has as its target T8, Caspase-6, P55212.
T8 chain: T5 sequence (looked up)

Another experiment has as its target T9, Caspase-7, P55210.
T9 chain: T4 sequence (looked up)

Another experiment concerns the target T10, Caspase-8, Q14790.
T10 chain: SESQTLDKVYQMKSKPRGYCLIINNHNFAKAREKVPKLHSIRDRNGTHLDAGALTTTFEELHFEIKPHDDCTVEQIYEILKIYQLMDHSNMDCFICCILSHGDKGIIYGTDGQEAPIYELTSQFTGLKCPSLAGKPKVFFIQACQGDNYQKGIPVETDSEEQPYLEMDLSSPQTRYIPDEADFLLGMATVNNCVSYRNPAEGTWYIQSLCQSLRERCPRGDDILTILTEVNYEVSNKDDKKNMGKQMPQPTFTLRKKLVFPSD

A further experiment deals with T11, Caspase-9, P55211.
T11 chain: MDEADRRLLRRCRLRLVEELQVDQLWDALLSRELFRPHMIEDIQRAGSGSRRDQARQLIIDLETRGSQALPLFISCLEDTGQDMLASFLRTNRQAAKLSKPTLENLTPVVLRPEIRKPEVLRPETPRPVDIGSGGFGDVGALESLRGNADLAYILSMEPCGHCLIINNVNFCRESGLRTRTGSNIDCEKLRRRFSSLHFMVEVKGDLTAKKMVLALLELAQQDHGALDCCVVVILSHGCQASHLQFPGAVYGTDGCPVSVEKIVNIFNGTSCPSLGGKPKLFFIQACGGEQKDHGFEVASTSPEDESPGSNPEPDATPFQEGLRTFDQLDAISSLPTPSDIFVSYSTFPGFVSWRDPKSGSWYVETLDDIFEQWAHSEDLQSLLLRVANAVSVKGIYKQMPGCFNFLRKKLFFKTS

Numbered stars: 1 amine (or outer) side, 2 acyl side, 3 side chain; on linkers, the order of the positions; unused ones are H or OH. Square brackets hold non-standard residues; d marks the D form. * marks the point of attachment. CH═CH‑CON(CH2Ph)2 = O=C(/C=C/*)N(Cc1ccccc1)Cc1ccccc1; CH═CH‑CON(CH3)CH2CH2Ph = CN(CCc1ccccc1)C(=O)/C=C/*; AAsp = aza-Asp, O=C(N(CC(=O)[*:3])N[*:1])[*:2]; CH═CH‑CON(CH3)CH2Ph = CN(Cc1ccccc1)C(=O)/C=C/*; CH═CH‑COOCH2Ph = O=C(/C=C/*)OCc1ccccc1; CH:CH‑COOEt = CCOC(=O)/C=C/*; CH═CH‑COOEt = CCOC(=O)/C=C/*; Cbz = O=C(OCc1ccccc1)*

B1: Cbz-Ile-Glu-Thr-AAsp-CH═CH-CON(CH3)CH2CH2Ph (peptide)
peptide: Cbz-IET[AAsp]-{CH═CH‑CON(CH3)CH2CH2Ph}
SMILES: CC[C@H](C)[C@H](NC(=O)OCc1ccccc1)C(=O)N[C@@H](CCC(=O)O)C(=O)N[C@H](C(=O)NN(CC(=O)O)C(=O)/C=C/C(=O)N(C)CCc1ccccc1)[C@@H](C)O
On to B1, for which the k2 in the experiment with Caspase-10 was 8770 M⁻¹ s⁻¹; with Caspase-2, 38 M⁻¹ s⁻¹; with Caspase-3, 5480 M⁻¹ s⁻¹; with Caspase-7, 1020 M⁻¹ s⁻¹; in the experiment with Caspase-8, 60500 M⁻¹ s⁻¹; with Caspase-9 it was 760 M⁻¹ s⁻¹.

Cbz-IET[AAsp]-{CH═CH‑CONHCH2Ph} [Cbz-Ile-Glu-Thr-AAsp-CH═CH-CONHCH2Ph]: the k2 with Caspase-10 amounted to 503 M⁻¹ s⁻¹; with Caspase-2, 15 M⁻¹ s⁻¹; in the experiment with Caspase-3, 2250 M⁻¹ s⁻¹; with Caspase-6 it was 16800 M⁻¹ s⁻¹; with Caspase-7, 100 M⁻¹ s⁻¹; in the experiment with Caspase-8, 61300 M⁻¹ s⁻¹. The molecule further registered a k2 with Caspase-9 of 440 M⁻¹ s⁻¹.

On to Cbz-IET[AAsp]-{CH═CH‑CONHCH2CH2Ph} [Cbz-Ile-Glu-Thr-AAsp-CH═CH-CONHCH2CH2Ph], for which the k2 with Caspase-10 was 8290 M⁻¹ s⁻¹; in the experiment with Caspase-2, 30 M⁻¹ s⁻¹; with Caspase-3, 4750 M⁻¹ s⁻¹; with Caspase-6, 18700 M⁻¹ s⁻¹; in the experiment with Caspase-7 it was 440 M⁻¹ s⁻¹; with Caspase-8, 71000 M⁻¹ s⁻¹. In the experiment with Caspase-9, the k2 came out at 615 M⁻¹ s⁻¹.

DEVD (modifications not checked) [Cbz-Asp-Glu-Val-AAsp-CH═CH-CONHCH2Ph]: the k2 with Caspase-10, Q92851 was 19400 M⁻¹ s⁻¹; in the experiment with Caspase-3, P42574, 1.75e+06 M⁻¹ s⁻¹; with Caspase-6, P55212 it was 3210 M⁻¹ s⁻¹; with Caspase-7, P55210 it was 249000 M⁻¹ s⁻¹; in the experiment with Caspase-8, Q14790, 78200 M⁻¹ s⁻¹; in the experiment with Caspase-9, P55211, 2010 M⁻¹ s⁻¹.

B2: Cbz-Ile-Glu-Thr-AAsp-CH═CH-CON(CH3)CH2Ph (peptide)
peptide: Cbz-IET[AAsp]-{CH═CH‑CON(CH3)CH2Ph}
SMILES: CC[C@H](C)[C@H](NC(=O)OCc1ccccc1)C(=O)N[C@@H](CCC(=O)O)C(=O)N[C@H](C(=O)NN(CC(=O)O)C(=O)/C=C/C(=O)N(C)Cc1ccccc1)[C@@H](C)O
B2: the k2 in the experiment with Caspase-10 is 8500 M⁻¹ s⁻¹; with Caspase-2, 95 M⁻¹ s⁻¹; with Caspase-3, 6000 M⁻¹ s⁻¹; in the experiment with Caspase-6 it was 45900 M⁻¹ s⁻¹; with Caspase-7, 390 M⁻¹ s⁻¹; with Caspase-8, 59700 M⁻¹ s⁻¹. The molecule further came in with a k2 in the experiment with Caspase-9 of 845 M⁻¹ s⁻¹.

B3: Cbz-Val-Glu-Val-AAsp-CH═CH-COOEt (peptide)
peptide: Cbz-VEV[AAsp]-{CH:CH‑COOEt}
SMILES: CCOC(=O)/C=C/C(=O)N(CC(=O)O)NC(=O)[C@@H](NC(=O)[C@H](CCC(=O)O)NC(=O)[C@@H](NC(=O)OCc1ccccc1)C(C)C)C(C)C
Regarding B3, the k2 in the experiment with Caspase-10 came out at 6600 M⁻¹ s⁻¹; with Caspase-2 it was 115 M⁻¹ s⁻¹; in the experiment with Caspase-3, 41200 M⁻¹ s⁻¹; with Caspase-6, 83600 M⁻¹ s⁻¹; with Caspase-7 it was 3650 M⁻¹ s⁻¹; with Caspase-8, 176000 M⁻¹ s⁻¹. The molecule further had a k2 in the experiment with Caspase-9 of 340 M⁻¹ s⁻¹.

B4: Cbz-Ile-Glu-Thr-AAsp-CH═CH-COOEt (peptide)
peptide: Cbz-IET[AAsp]-{CH═CH‑COOEt}
SMILES: CCOC(=O)/C=C/C(=O)N(CC(=O)O)NC(=O)[C@@H](NC(=O)[C@H](CCC(=O)O)NC(=O)[C@@H](NC(=O)OCc1ccccc1)[C@@H](C)CC)[C@@H](C)O
In the case of B4, the k2 with Caspase-10 came out at 6900 M⁻¹ s⁻¹; with Caspase-2, 300 M⁻¹ s⁻¹; with Caspase-3, 6740 M⁻¹ s⁻¹; with Caspase-6, 88700 M⁻¹ s⁻¹; with Caspase-7, 530 M⁻¹ s⁻¹; with Caspase-8, 56500 M⁻¹ s⁻¹.

Take DEVD (modifications not checked) [Cbz-Asp-Glu-Val-AAsp-CH═CH-COOCH2Ph]: the k2 with Caspase-10, Q92851 was 28300 M⁻¹ s⁻¹; with Caspase-3, P42574, 1.7e+06 M⁻¹ s⁻¹; in the experiment with Caspase-6, P55212 it was 8470 M⁻¹ s⁻¹; in the experiment with Caspase-7, P55210, 114000 M⁻¹ s⁻¹; in the experiment with Caspase-8, Q14790, 121000 M⁻¹ s⁻¹.

Regarding Cbz-IET[AAsp]-{CH═CH‑CONHPh} [Cbz-Ile-Glu-Thr-AAsp-CH═CH-CONHPh], the k2 turned out to be 9210 M⁻¹ s⁻¹ with Caspase-10; 365 M⁻¹ s⁻¹ in the experiment with Caspase-2; 7030 M⁻¹ s⁻¹ with Caspase-3; 99200 M⁻¹ s⁻¹ with Caspase-6; 920 M⁻¹ s⁻¹ with Caspase-7; 245000 M⁻¹ s⁻¹ in the experiment with Caspase-8. Further, in the experiment with Caspase-9, the k2 is 940 M⁻¹ s⁻¹.

B5: Cbz-Ile-Glu-Thr-AAsp-CH═CH-COOCH2Ph (peptide)
peptide: Cbz-IET[AAsp]-{CH═CH‑COOCH2Ph}
SMILES: CC[C@H](C)[C@H](NC(=O)OCc1ccccc1)C(=O)N[C@@H](CCC(=O)O)C(=O)N[C@H](C(=O)NN(CC(=O)O)C(=O)/C=C/C(=O)OCc1ccccc1)[C@@H](C)O
B5: the k2 came out at 15200 M⁻¹ s⁻¹ with Caspase-10; 110 M⁻¹ s⁻¹ with Caspase-2; 2300 M⁻¹ s⁻¹ in the experiment with Caspase-3; 23400 M⁻¹ s⁻¹ with Caspase-6; 660 M⁻¹ s⁻¹ in the experiment with Caspase-7; 148000 M⁻¹ s⁻¹ with Caspase-8.

B6: Cbz-Ile-Glu-Thr-AAsp-CH═CH-CON(CH2Ph)2 (peptide)
peptide: Cbz-IET[AAsp]-{CH═CH‑CON(CH2Ph)2}
SMILES: CC[C@H](C)[C@H](NC(=O)OCc1ccccc1)C(=O)N[C@@H](CCC(=O)O)C(=O)N[C@H](C(=O)NN(CC(=O)O)C(=O)/C=C/C(=O)N(Cc1ccccc1)Cc1ccccc1)[C@@H](C)O
Turning to B6, the k2 with Caspase-10 was 7930 M⁻¹ s⁻¹; in the experiment with Caspase-2, 76 M⁻¹ s⁻¹; with Caspase-3, 9570 M⁻¹ s⁻¹; with Caspase-6, 83900 M⁻¹ s⁻¹; in the experiment with Caspase-7 it was 1140 M⁻¹ s⁻¹; with Caspase-8, 39500 M⁻¹ s⁻¹. The molecule further displayed a k2 with Caspase-9 of 1930 M⁻¹ s⁻¹.

Source of the values: patent publication US20050256058A1.
